# Data from patent publication US20100015135A1.
# Residue numbers refer to the chain shown, from its start.
# T1: human EphB4-His (human) (UniProt P54760)
# T1 sequence (looked up): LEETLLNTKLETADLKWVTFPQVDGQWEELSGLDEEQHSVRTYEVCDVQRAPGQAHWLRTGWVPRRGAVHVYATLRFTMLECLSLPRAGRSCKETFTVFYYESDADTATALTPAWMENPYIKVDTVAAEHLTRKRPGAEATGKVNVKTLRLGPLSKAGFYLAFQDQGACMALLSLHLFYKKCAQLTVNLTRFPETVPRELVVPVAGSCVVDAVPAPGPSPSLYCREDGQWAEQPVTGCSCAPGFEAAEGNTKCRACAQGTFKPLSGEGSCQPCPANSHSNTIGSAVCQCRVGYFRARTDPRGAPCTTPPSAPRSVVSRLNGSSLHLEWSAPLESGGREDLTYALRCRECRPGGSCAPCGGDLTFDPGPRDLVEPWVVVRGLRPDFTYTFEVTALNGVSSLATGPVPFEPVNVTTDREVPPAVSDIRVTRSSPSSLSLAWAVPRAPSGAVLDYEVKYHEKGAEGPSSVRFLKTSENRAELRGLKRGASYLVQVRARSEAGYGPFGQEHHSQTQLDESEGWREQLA
# B1: anti-EphB4 antibody clone YW30.35 (antibody, V domains shown)
# VH: EVQLVESGGGLVQPGGSLRLSCAASGFTISGYYIHWVRQAPGKGLEWVGGIYPYSGSTDYADSVKGRFTISADTSKNTAYLQMNSLRAEDTAVYYCARGSGLRLGGLDYAMDYWGQGTLVTVSS
# VL: DIQMTQSPSSLSASVGDRVTITCRASQDVSTAVAWYQQKPGKAPKLLIYSASFLYSGVPSRFSGSGSGTDFTLTISSLQPEDFATYYCQQSYTTPPTFGQGTKVEIK
# B2: anti-EphB4 antibody clone 30.35.2D13 (antibody, V domains shown)
# VH: B1 VH with P53L
# VL: B1 VL with S91T, Y92A, T93Q, P96E
# B3: anti-EphB4 antibody clone YW30.35.1D2 (antibody, V domains shown)
# VH: B1 VH with G99S
# VL: DIQMTQSPSSLSASVGDRVTITCRASQDSEIFLAWYQQKPGKAPKLLIYSASNLESGVPSRFSGSGSGTDFTLTISSLQPEDFATYYCQQSNAVPLTFGQGTKVEIK
# B4: anti-EphB4 antibody clone YW30.35.2D12 (antibody, V domains shown)
# VH: B1 VH with P53L, T58R, D59G
# VL: B1 VL with Q90K, Y92E, T94I, T97S
# B5: anti-EphB4 antibody clone YW30.35.2D8 (antibody, V domains shown)
# VH: B1 VH with T28S, G31N, I34L, P53L, S55G, G56S, T58S, D59E
# VL: B1 VL with Q90E, Y92T
# Biological target: T1, human EphB4-His (human)
# Assay: SPR, BIAcore-3000, antibody coupled to CM5 chip, EphB4-His injected, 25 C
Kd [nM],koff [s⁻¹],kon [M⁻¹ s⁻¹],Binder
32,9.6e-05,3000,B1
< 0.11,< 5e-06,45000,B2
< 0.14,< 5e-06,36000,B3
< 0.19,< 5e-06,27000,B4
< 0.12,< 5e-06,40000,B5

# Biological target: murine EphB4-His (murine) (UniProt P54761)
# Assay: as above
Kd [nM],koff [s⁻¹],kon [M⁻¹ s⁻¹],Binder
2.4,7.5e-05,31000,B1
< 0.04,< 5e-06,128000,B3
< 0.05,< 5e-06,92000,B5
